Data set [1] can be described thus: In vitro enzymatic cascade converting sucrose and CBD to CBD glycosides. The data set is classed as biochemical. The note with it: enzymes added: GmSuSy. The source says:
In the previous examples, in vitro glycosyl transferase assays required the addition of an “activated” sugar (e.g. UDP-glucose), which is typically an extremely expensive reagent, furthermore, other activated sugars e.g. UDP-rhamnose are not available commercially and must be custom synthesized at high-cost and difficulty. […] To facilitate the low-cost production of cannabinoid glycosides not only with glucose, but with alternative sugars, an enzymatic cascade was set up to convert cannabinoids and the simple sugar sucrose into various cannabinoid glycosides. The cascade is divided into 3 steps, in step 1 sucrose and uridine diphosphate (UDP) is converted to UDP-glucose by GmSuSy (SEQ ID NO: 209, 210), additionally generating fructose as a bi-product. In step 2, UDP-glucose is interconverted to alternative UDP-sugars using a range of enzymes. For example, conversion of UDP-glucose to UDP-galactose by BsGa/E, multiple enzymes can also be used to produce UDP-sugars via other UDP-sugar intermediates. For example, conversion of UDP-glucose to UDP-glucuronic acid by AtUGDH1 combined with conversion of UDP-glucuronic acid to UDP-xylose by AtUXS3. In step 3, glycosyl transferases convert the activated sugar and a cannabinoid acceptor to the corresponding cannabinoid glycoside. For example, conversion of UDP-rhamnose and CBD to CBD-1′-O-β-D-rhamnoside (OB13) by Cs73Y (SEQ ID NO: 157, 158).
Enzymes were purified and the in vitro assay performed as described in Example 13 and the reaction mixture set up as shown in table 57. Enzymes and co-factors were added as required for each individual reaction. Samples were extracted and analyzed as stated above.

Data set [2] is described as follows: In vitro glycosyl transferase performance, purified enzymes, % conversion of cannabinoids to cannabinoid glycosides. The data set is classed as biochemical. The note with it: for Conversion % (CBD to the glycoside): acceptor CBD; for % conversion of CBD to OB9 (CBD-1′-O-β-D-xyloside): Table 26; for % conversion of CBDV to OB24 (CBDV-1′-O-β-D-glucoside): Table 33; for % conversion of CBDA to OB31 (CBDA-1′-O-β-D-glucoside): Table 37; for % conversion, CBG to OB33 (CBG-1′-O-β-D-glucosyl-3′-O-β-D-glucoside): product OB33; for % conversion, CBN to OB23 (CBN-1′-O-β-D-di-glucoside): substrate CBN, product OB23; for % conversion, THC to OB20 (THC-1′-O-β-D-glucoside): substrate THC, product OB20; for % conversion, 11-nor-9-carboxy-THC to OB41 (11-nor-9-carboxy-THC-1′-O-β-D-glucoside): substrate 11-nor-9-carboxy-THC, product OB41. The procedure: For in vitro studies of glycosyl transferase performance in glycosylating cannabinoids, purified Glycosyl transferases were prepared as follows:
5 mL of 2× concentrated LB medium+Ampicillin (50 μg/m L) was inoculated with E. coli XJb (DE3) strains expressing a glycosyl transferase of interest and incubated overnight at 30° C. with shaking. The following day, cell cultures were transferred into 500 mL of 2× concentrated LB medium+Ampicillin (50 μg/mL) and incubated overnight at 30° C. with shaking. The following day, the cell cultures were transferred to 1 L of 2× concentrated LB medium+Ampicillin (50 μg/mL)+3 mM arabinose+0.1 mM IPTG. Cells were incubated for 24 h at 20° C. with shaking. The following day, the cells were collected by centrifugation at 46500×g for 10 mins at 4° C. Cells were resuspended in 20 mL ice-cold GT buffer (50 mM Tris-HCl pH7.4+1 mM phenylmethanesulfonyl fluoride+1 cOmplete™, mini, EDTA-free Protease Inhibitor Cocktail tablet (Roche)). The resuspended material was transferred to a 50 mL falcon tube and kept at −80° C. for at least 15 mins. Falcon tubes were then thawed at room temperature, as the tubes were thawing the following reagents were added; 2.6 mM MgCl2, 1 mM CaCl2, 250 μL of a 1.4 mg/ml DNase solution (Sigma) dissolved in MilliQ water. Tubes were gently inverted to mix then were incubated for 5 mins at 37° C. Binding buffer was then added to the tubes (50 mM Tris-HCl pH7.4, 10 mM imidazole, 500 mM NaCl. 11.25 mL MilliQ water) and the pH adjusted to 7.4 with HCl. The mix was centrifuged at 15550×g for 15 mins at 4° C., the supernatant transferred to a fresh 50 mL falcon tubes and centrifuged again to remove any remaining cellular debris at 48400×g for 20 minutes at 4° C. While the enzyme prep was centrifuging, 3 mL of HIS-Select (available from Sigma P6611) column material was added to a fresh 50 mL tube and washed by adding MilliQ water up to 50 mL, centrifuging at 2000×g for 2 mins and discarding the supernatant. This washing step was repeated. Finally, MilliQ water was added to the HIS-Select material to an approximate 50% volume. Collected supernatant from the centrifuged enzyme preparation was transferred to the tube containing the HIS-Select material through a Miracloth (available from Merck Millipore), and then incubated at 4° C. with gently shaking by inversion for 2 h. After 2 h the mix was centrifuged at 2000×g for 4 minutes at 4° C. and the supernatant discarded. The remaining HIS-Select material was washed twice with 1× binding buffer (50 mM Tris-HCl, 0.5M NaCl, 10 mM Imidazole, pH 7.4) with centrifugation at 2000×g for 4 minutes at 4° C. The HIS-Select material was resuspended in 5 mL 1× binding buffer and transferred to a Poly-Prep®Chromatography Column (available from BioRad, 7311550). The HIS-Select material was kept at 4° C. and washed twice with 1× binding buffer by filling up the column and allowing it to drip through. Finally, purified Glycosyl transferases were eluted from the HIS-Select material by adding 7.5 mL of elution buffer (50 mM Tris-HCl, 500 mM Imidazole, pH7.4) and collecting the flow through. Enzymes were used immediately in in vitro enzyme assays or stored at −20° C. in 50% glycerol until needed.
In vitro conversion of various cannabinoids to cannabinoid glycosides was carried out according to table 21. Alkaline phosphatase was provided by New England Biolabs (M0371S). Cannabinoids were dissolved in methanol. The UDP-sugar (e.g. UDP-glucose) was provided by a commercial supplier (e.g. Sigma) or produced by in vitro enzymatic conversion from a commercially available UDP-sugar as shown in Example 21.
The reaction mixture was scaled up or down as required. The reaction mixture was incubated without shaking at 30° C. for 24 hours. Extraction and analysis were performed as described above for this example. […]

Where [3] appears, read: substrate CBG, glycosyl transferase in vitro.

Regarding `C=C(C)C1CCC(C)=CC1c1c(O)cc(CCCCC)cc1OC1OC(C)C(O)C(O)C1O` [OB13, CBD-1′-O-α-L-rhamnoside], the “% Conversion of CBD and sucrose to CBD glycoside” value in data set [1] (AtRHM2, Cs73Y) is listed as 15.2%. Further, in data set [2] (UDP-Rhamnose, enzyme PL-342(Cp73B_GA)), the “Conversion % (CBD to the glycoside)” value was 5.7%.
`C=C(C)[C@@H]1CCC(C)=C[C@H]1c1c(O[C@@H]2OC[C@@H](O)[C@H](O)[C@H]2O)cc(CCCCC)cc1O[C@@H]1OC[C@@H](O)[C@H](O)[C@H]1O` [OB10, CBD-1′-O-β-D-xylosyl-3′-O-β-D-xyloside]: in data set [1] (AtUGDH1, AtUXS3, Cs73Y), the “% Conversion of CBD and sucrose to CBD glycoside” value is reported as 72.3%. The “Conversion % (CBD to the glycoside)” value in data set [2] (UDP-Xylose, enzyme PL-214(Cs73Y_GA)) is 97.4%.

B1: PL-182(Ha88B_2_GA) (protein)
chain: MESSTVVMYPSPGIGHLVSMVELGKLIHTHHPSLSVIILILTAPYETGATGKYINTVSATTPAITFHHLPAIALPPDFSSEFIDLAFGLPELYNSVVHNTLVAISQKSTIKAVILDFFSNAAFQVSTNLSLPTYYFFTSGTFGLCAFLYLTTLHKTTSKSIKDLNTLLDFPGVPPIHSSHMPTAIFDRESNSYKNFMKTSNNMAKCSGIIVNSFLELEERAVATLRDGKCITDGPTPPIYFIGPLIASGSQVDPNENECLKWLKTQPSKSVVFLCFGSMGVFEKEQLKEIAVGLERSGQRFLWVVRNPPLESSSGAKEFELDDILPEGFLTRTKDKGLVVKNWAPQPAILGHESVGGFVSHCGWNSSLEAVVSGVPMVAWPLYAEQQMNRVYLVEEIKVALWLRMSADGFVGAEAVEETVRKLMEGEEGRAVREQILEMSGGAKAAVEDGGSSRLDFLKLTRPWTDQ
As to B1, the “% conversion of CBD to OB1 (CBD-1′-O-β-D-glucoside)” value in data set [2] (glycosyl transferase in vitro, Table 24) is listed as 50.0%. In data set [2] (glycosyl transferase in vitro), the “% conversion of CBD to OB9 (CBD-1′-O-β-D-xyloside)” value turned out to be 9.6%; the “% conversion of CBDV to OB24 (CBDV-1′-O-β-D-glucoside)” value is 89.0%; the “% conversion of CBDA to OB31 (CBDA-1′-O-β-D-glucoside)” value was determined as 15.5%; the “% conversion, CBN to OB23 (CBN-1′-O-β-D-di-glucoside)” value came out at 68.0%. In addition, in data set [2] (glycosyl transferase in vitro), the “% conversion, THC to OB20 (THC-1′-O-β-D-glucoside)” value is recorded as 80.3%. Besides, the “% conversion, CBG to OB32 (CBG-1′-O-β-D-glucoside)” value in data set [2] (substrate CBG, product OB32, glycosyl transferase in vitro) is 82.9%. Also, the “% conversion, CBG to OB33 (CBG-1′-O-β-D-glucosyl-3′-O-β-D-glucoside)” value in data set [2] (setting [3]) is 26.5%.

B2: PL-214(Cs73Y_GA) (protein)
chain: MGSEGRQLHIFMFPFMAHGHMIPIVDMAKLFASRGIKITIVTTPLNSISISKSLHNCSPNSLIQLLILKFPAAEAGLPDGCENADSIPSMDLLPKFFEAVSLLQPPFEEALHNNRPDCLISDMFFPWTNDVADRVGIPRLIFHGTSCFSLCSSEFMRLHKPYQHVSSDTEPFTIPYLPGDIKLTKMKLPIFVRENSENEFSKFITKVKESESFCYGVVVNSFYELEAEYVDCYKDVLGRKTWTIGPLSLTNTKTQEITLRGRESAIDEHECLKWLDSQKPNSVVYVCFGSLAKFNSAQLKEIAIGLEASGKKFIWVVRKGKGEEEEEEQNWLPEGYEERMEGTGLIIRGWAPQVLILDHPSVGGFVTHCGWNSTLEGVAAGVPMVTWPVGAEQFYNEKLVTEVLKTGVGVGVQKWAPGVGDFIESEAVEKAIRRIMEKEGEEMRNRAIELGKKAKWAVGEEGSSYSNLDALIEELKSLAF
For the molecule B2, the “% conversion of CBD to OB13 (CBD-1′-O-α-L- rhamnoside)” value in data set [2] (glycosyl transferase in vitro, Table 25) is on record as 4.4%. In data set [2] (glycosyl transferase in vitro), the “% conversion of CBD to OB9 (CBD-1′-O-β-D-xyloside)” value is 6.9%; the “% conversion of CBDA to OB31 (CBDA-1′-O-β-D-glucoside)” value amounted to 98.6%; the “% conversion, 11-nor-9-carboxy-THC to OB41 (11-nor-9-carboxy-THC-1′-O-β-D-glucoside)” value turned out to be 2.0%; the “% conversion, CBN to OB23 (CBN-1′-O-β-D-di-glucoside)” value was 98.6%. For the same molecule, in data set [2] (glycosyl transferase in vitro), the “% conversion, THC to OB20 (THC-1′-O-β-D-glucoside)” value worked out at 29.5%. The “% conversion of CBD to OB6 (CBD-1′-O-β-D-glucosyl-3′-O-β-D-glucoside)” value in data set [2] (glycosyl transferase in vitro, Table 27) came out at 95.8%. In data set [2] (glycosyl transferase in vitro, Table 28), the “% conversion of CBD to OB10 (CBD-1′-O-β-D-xylosyl-3′-O-β-D-xyloside)” value is recorded as 98.5%. In addition, the “% conversion of CBD to OB7 (CBD-1′-O-β-D-tri-glucoside)” value in data set [2] (glycosyl transferase in vitro, Table 29) came to 27.3%. In addition, the “% conversion of CBD to OB8 (CBD-1′-O-β-D-glucosyl-3′-O-β-D-di-glucoside)” value in data set [2] (glycosyl transferase in vitro, Table 30) was found to be 12.3%. For the same molecule, the “% conversion of CBDV to OB25 (CBDV-1′-O-β-O-glucosyl-3′-O-β-D-glucoside)” value in data set [2] (glycosyl transferase in vitro, Table 34) is 91.0%. Further, the “% conversion, CBG to OB33 (CBG-1′-O-β-D-glucosyl-3′-O-β-D-glucoside)” value in data set [2] (setting [3]) was 100.0%.

B3: PL-28(At72B1_GA) (protein, UniProt Q9M156 1-480, looked up)
UDP-glycosyltransferase 72B1: MEESKTPHVAIIPSPGMGHLIPLVEFAKRLVHLHGLTVTFVIAGEGPPSKAQRTVLDSLPSSISSVFLPPVDLTDLSSSTRIESRISLTVTRSNPELRKVFDSFVEGGRLPTALVVDLFGTDAFDVAVEFHVPPYIFYPTTANVLSFFLHLPKLDETVSCEFRELTEPLMLPGCVPVAGKDFLDPAQDRKDDAYKWLLHNTKRYKEAEGILVNTFFELEPNAIKALQEPGLDKPPVYPVGPLVNIGKQEAKQTEESECLKWLDNQPLGSVLYVSFGSGGTLTCEQLNELALGLADSEQRFLWVIRSPSGIANSSYFDSHSQTDPLTFLPPGFLERTKKRGFVIPFWAPQAQVLAHPSTGGFLTHCGWNSTLESVVSGIPLIAWPLYAEQKMNAVLLSEDIRAALRPRAGDDGLVRREEVARVVKGLMEGEEGKGVRNKMKELKEAACRVLKDDGTSTKALSLVALKWKAHKKELEQNGNH
Regarding B3, in data set [2] (glycosyl transferase in vitro), the “% conversion of CBDV to OB24 (CBDV-1′-O-β-D-glucoside)” value was 9.9% and the “% conversion, 11-nor-9-carboxy-THC to OB41 (11-nor-9-carboxy-THC-1′-O-β-D-glucoside)” value is 0.9%.

Values taken from patent US20220290200A1, “GENETICALLY MODIFIED HOST CELLS PRODUCING GLYCOSYLATED CANNABINOIDS” (OCTARINE BIO IVS, priority 2019, published 2022).
